Here are results for one molecule from US20060140889A1.

This assay has as its target bovine serum albumin (bovine) (UniProt P02769). The assay is described as follows: gel-shift, 0.1 mg/ml conjugate with 10 mg/ml BSA, 7.5% native PAA gel, in situ peroxidase activity; Rf of the conjugate alone 0.31.

Chain of bovine serum albumin (bovine) (P02769 25-607 limits assumed): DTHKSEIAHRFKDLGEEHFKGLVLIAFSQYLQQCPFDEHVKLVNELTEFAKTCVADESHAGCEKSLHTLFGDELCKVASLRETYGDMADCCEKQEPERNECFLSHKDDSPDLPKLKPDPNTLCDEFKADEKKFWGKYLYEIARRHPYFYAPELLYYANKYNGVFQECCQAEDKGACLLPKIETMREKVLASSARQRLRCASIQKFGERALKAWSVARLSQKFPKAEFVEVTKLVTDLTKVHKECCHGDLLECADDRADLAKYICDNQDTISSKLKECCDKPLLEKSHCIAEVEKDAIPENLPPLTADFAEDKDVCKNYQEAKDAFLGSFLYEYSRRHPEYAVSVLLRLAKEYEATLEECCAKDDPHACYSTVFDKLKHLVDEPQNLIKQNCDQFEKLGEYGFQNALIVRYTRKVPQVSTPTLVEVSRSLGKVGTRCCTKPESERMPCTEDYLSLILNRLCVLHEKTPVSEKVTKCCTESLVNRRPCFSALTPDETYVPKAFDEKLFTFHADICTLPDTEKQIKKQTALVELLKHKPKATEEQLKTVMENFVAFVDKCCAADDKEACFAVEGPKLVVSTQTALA

B1: iMab142-xx-0002-HRP conjugate (protein, not shown: small tags and cut ends)
chain: MNVKLVEKGGNFVENDDDLKLTCRAEGYTIGPYSMGWFRQAPNDDSTNVSCINMGGGITYYGDSVKERFDIRRDNASNTVTLSMDDLQPEDSAVYNCAADWWDGFTYGSTWYNPSSYDYRGQGTDVTVSS
modifications: Amines (N-terminus and Lys) were thiolated with SATA, deacetylated, and coupled by thioether to maleimide-activated horseradish peroxidase. The sites and the iMab:HRP ratio of the product are not stated.
With B1, the retardation factor (Rf) was found to be 0.31.
